Assay results as given in a protein production outcome set (Wang et al. 2014).

Assay: label from the status in PepcDB records

MYLYLSLILLAFTLSLDSCSVGLTYGLRSVRIPLRSIIIIGMCSAAVMLVSMGIGHMIAKVFSPVIATRIGGLVLIGIGIWVLYQFFRSERKEEPKQEEKVWKLEIASLGLVIQILRKPTVADFDKSGTISAGEALLLGIALSVDSFGAGIGASLLGYAPAMMAILVAVMSSLFLFIGMKLGTVLSNMKWLQKFTFLPGVLLIIIGIWKM
protein production: failed

MFKRCFSPLTLVNQLALIVMLSTAIGVAGMAVSGWLVQGVQGSAHAINKAGSLRMQSYRLLAAVPLDAKDQKLLDEMEQTAFSPELTRAAERDGQQKQLKALQDYWHNELSPRLQHAQNAHAVAEDITRFVAGLDRLVTSFDHTTELRIERVVLVHRVMAIFMALLLVFTIIWLRVRLLQPWKQLLSMARAVSQRDFTQRANISGRNEMAALGSALNNMSEELAESYAVLEQRVQEKTAGLEHKNQILSFLWQANRRLHSQAPLCERLSPVLNGLQNLTQLHDIELRVYDLEDEDNHQEFTCQSDISCDDKGCHLCPRSALPMINGGTTLKWRLTDSHTQYGILLATLPYGRHLSHDQQQLVDTLVEQLTATLALDRHQERQQRLIVMEERATIARELHDSIAQSLSCMKMQVSCLQMQGDALPESSRELLSQIRNELNCSWAQLRELLTTFRLQLTEPGLRPALEASCQEFSARFGFTVKLDYQLPPRLVPSHQAIHLLQIAREAPSNALKHSHADDVVVTVTQCGKQVKLKVQDNGCGVPENAERSNHYGMIIMRDRAQSLRGDCQVRRRETGGTEVTVTFIPETNFTETQGDTHE
protein production: failed

MKELSLFLQNRSVRRVGVFILIAFVLYLLRSQMNIILLTFIFSYLITRLENFILRRISIYRQIIVLLLYVLIAAVIIFVFVKYIPVLADQINQLVKFGNTFLTTDSNNDFINYIVSLANQFDIMKYTEQGVSMILTYLTNVGTVLMNVFIALMLSLFFSLGKEHLVSFTNQFSTSKIGFIYEEVKFFGSKFVATFGKVIEAQFIIALVNAILTTIALWILGFPQLMTLSIMVFLLGLIPVAGVIISLVPLTIIGYSIGGVEYIFYILVVVIIIHALESYVLNPKLMSAKTNLPVFYTFIILIFGEHFFGIWGLIVGIPVVMFFLDVLGVTNQEEIEQPKDTISHT
protein production: failed

METPYTDHLSPEDFEHVYEPAEDSFLLLDALEKDLEYLDRLQPSLCVELGSGSGVIITALAKKLAGFSLCLATDINPKACNATRRTATRNGARLDSIRCSLADALRPRSVDVLLFNPPYVVTSDEELQTQQFDSHSESSTDRNLVFSWAGGQDGRRVTDILLKQLDDILSPRGVLYLLLLRENKPEEIIKYLEGLQFRAVKFMERRIPGEHLCILKVTRYLASS
protein production: failed

MKEQILEKLKTVKYPGFEKDIVSFNFVKDIKIQDDGVFIDIEIVSANPEVANEIRKNTIEALSSLALKNIELNIITPKIPEEKSNSRSGKNIAPQVKNFIMVSSGKGGVGKSTTTVNLAISMAKMGKRVGILDADIYGPNIPRMLGETKTQPEVVGQRLKPILTHGVYMMSMGVLIEEGQGLMWRGAMIMKAIEQLLADVIWPELDVLFLDMPPGTGDAQITSAQSIPIAAGVCVSTPQTVSLDDSKRALDMFNKLHIPIAGVIENMSGFLCPDNGKEYDIFGKGTAEDMAKAYKSEVLAQIPIEMIVREGGDEGKPVSFYHPESVSSKRYLMAAEKIWSFIEKINNEGGADNSAIQPVMNGKSACSHLEHHHHHH
protein production: not failed

MAVTISGVRKHSPAYRHGIQAGERLLTLNGNEIMDVLDYRFYQLNTALVLELENNRGERRTVSLKKPEYEEIGLEFETYLMDRQHSCKNKCVFCFIDQLPKGLRKSLYFKDDDSRLSFLFGNYVTLTNLTEHEISRIIKMHISPMNISVHTTNPELRVKMMKNPRAGEALSIIRRFAQAGIKINCQIVLCPGYNDGEELKRTLSDLETMCPQVQAVAVVPVGITRYRQNLPEMRSFTRETAGEAIDLIESFGEKCLQKYGTRVAYPGDEFYLKAERPLPPAGFYEDFSMLENGVGLLPLLMDEFYSALEEAGETGGRKREITIATGMAPREYIRGFLDDAIKKFPHISGRVTPIVNRFFGETITVSGLVTGTDLIEQLSSVDLGDELLIPACMLRREGDLFLDDVSLQDVEAALKVPVRPVPNDGYAFLDAILGSESLEHHHHHH
protein production: failed

MEFRFENLLGAPYRGGNAVITKNTQLISPVGNRVSVTDLSKNHSVTLPLETSTNICRLASSPDGTFLLAVDEQNRCLFINLPRRVVLHRITFKDKVGALKFSPNGKFIAVGIGKLVEIWRSPGFRRAVLPFERVRTFANSDDKVVSLEWSLDSDYLLVGSRDLAARLFCVRKLKGVLNKPFLFLGHRDSVVGCFFGVDKMTNKVNRAFTIARDGYIFSWGYTEKDVKMDESEDGHSEPPSPVTPDRADEVMVENGGGVGTELKKRKEYDGKGLESDEEGDDDDEEYMHRGKWVLLRKDGCNQASAKVTACDYHQGLDMVVVGFSNGVFGLYQMPDFICIHLLSISRQKLTTAVFNERGNWLTFGCAKLGQLLVWDWRTETYILKQQGHYFDVNCVTYSPDSQLLATGADDNKVKVWNVMSGTCFITFTEHTNAVTALHFMADNHSLLSASLDGTVRAWDFKRYKNYKTYTTPTPRQFVSLTADPSGDVVCAGTLDSFEIFVWSKKTGQIKDILSGHEAPVHGLMFSPLTQLLASSSWDYTVRLWDVFASKGTVETFRHNHDVLTVAFRPDGKQLASSTLDGQINFWDTIEGVLMYTIEGRRDIAGGRVMTDRRSAANSSSGKCFTTLCYSADGGYILAAGTSRYICMYDIADQVLLRRFQISHNLSLDGVLDFLHSKKMTEAGPIDLIDDDNSDEEGGIDKQSRGNLGYDLPGSRPNRGRPIIRTKSLSIAPTGRSFAAATTEGVLIFSIDDTFIFDPTDLDIDVTPEAVEAAIEEDEVSRALALSMRLNEDSLIKKCIFAVAPADIKAVAISVRQKYLERLMEALVDLLENCPHLEFILHWCQEICKAHGSSIQRNYRTLLPALRSLQKAITRAHQDLADMCSSNEYTLRYLCSVPNNH
protein production: failed

MIAHLLLSLALLLTAAKLGGVLAVRLGQPAVLGELVAGIALGALPALGLHGAAGLAHDPVLEALAELGVILLLFEVGLSTRLAELVKVGASAFLVACIGVVAPMALGYGVGAWLLPGASPLAHLFLGAALSATSVGITARVLRDMGRIGSPAGQIILGAAVIDDVLGLLVLAVMVGLAGGGGDGAGTWTVLALVGAKAVGFLGAALVAGRWAAPRLFAVAARLRAQGVLFTLALAVCLALSWAASAVELAPIVGAFAAGLVLEGVPFAELSGGEERLEERLTPLAAVLVPLFFVRMGLAVDLGALGTGSLALAGALSVAAIVGKQACALAVVTPGVDRLAVGLGMIPRGEVGLIFANIGLSLTAGGRPLLGPGAFAAIVAMVLVTTLVTPPLLRWRMGSAPAAAAVRPGPGVRAA
protein production: failed

MQSAYSFLPQVIAHRGSSGQAPENTLASLHLAGQQGIKWVEIDVMLSGDGIPVIFHDDYLSRTTDGDGLIYKTPLAELKQLDAGSWKGQEYQQETIPTLLEAIEVISQYGMGLNLELKPCEGLEEETIAASVEVLKQHWPQDLPLLFSSFNYFALVSAKALWPEIARGYNVSAIPSAWQERLEHLDCAGLHIHQSFFDVQQVSDIKAAGYKVLAFTINDESLALKLYNQGLDAVFSDYPQKIQSAIDSHIN
protein production: not failed

DAPPAWLRCLAATYPVLAPLPNWGLSESRFRPVRAVANAGALPVVLTRVGREMPEIAATVEEFLAAAKDCGADVEVVDVPHGHHGFETIDLTDESRTAVRHALRTVL
protein production: failed

MENSFLSSKLVFLLAIALVLFLNTELSFLTAEGASDSNSKVYIVYLGQREHDDPELLTASHHQMLESLLQSKEDAHNSMIYSYQHGFSGFAALLTSSQAKKISEHPEVIHVIPNRILKLKTTRIWDHLGLSPIPTSFSSSSSAKAKGLLHNTSMGSEAIIGVVDSGIWPESKVFNDQGLGPIPKRWRGKCRSGEKFNATMHCNKKLIGAKYYQSGLLAMNGGKFNRIIIRDFKSNRDATGHGTHTATIAGGSFVPNASFYGLARGTVRGGAPRARIASYKACWNVVGWGGICSSADMWKAYDDAIHDQVDVLSVSIGASIPEDSERVDFIAAFHAVAKGITVVAAAGNDGSGAQTICNVAPWLLTVAATTLDRSFPTKITLGNNQTFFGKTILEFDSTHPSSIAGRGVVAVILAKKPDDRPAPDNSYIFTDYEIGTHILQYIRTTRSPTVRISAATTLTGQPATPKVAAFSSRGPNSVSPAILKPDIAAPGVSILAAVSPLDPGAFNGFKLHSGTSMSTPVVSGIIVLLKSLHPKWSPAAMRSALVTTAWRTSPSGEPIFAQGSNKKLADPFDYGGGLVNPEKAAKPGLVYDMGIKDYINYMCSAGYNDSSISRVLGKKTKCPIPKPSMLDINLPSITIPNLEKEVTLTRTVTNVGPIKSVYRAVIESPLGITLTVNPTILVFKSAAKRVLTFSVKAKTSHKVNSGYFFGSLTWTDGVHDVTIPVSVKTTISM
protein production: failed
